T1: hpIgR_D3
T1 construct: HIS-tagged construct from HEK293 cells; also called human pIgR extracellular domain 3 (D3); hD3
T1 HIS-tagged domain construct: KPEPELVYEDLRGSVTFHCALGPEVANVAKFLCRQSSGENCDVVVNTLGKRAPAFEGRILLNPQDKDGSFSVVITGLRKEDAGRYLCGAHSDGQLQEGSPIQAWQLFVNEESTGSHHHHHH

T2: human pIgR extracellular domain 4-domain 5 (D4-D5) (human, UniProt P01833 350-565)
T2 construct: HIS-tagged construct made in HEK293 cells; also called hpIgR domains 4-5
T2 chain: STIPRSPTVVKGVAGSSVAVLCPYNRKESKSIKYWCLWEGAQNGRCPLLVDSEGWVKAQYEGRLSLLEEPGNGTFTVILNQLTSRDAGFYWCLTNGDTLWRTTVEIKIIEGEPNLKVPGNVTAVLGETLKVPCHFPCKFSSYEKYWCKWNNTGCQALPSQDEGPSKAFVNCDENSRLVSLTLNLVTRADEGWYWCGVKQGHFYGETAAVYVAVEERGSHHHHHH

T3: hpIgR_D2-D3
T3 construct: HIS-tagged construct from HEK293 cells; also called human pIgR extracellular domain 2-domain 3 (D2-D3); hD2-D3
T3 HIS-tagged domain construct: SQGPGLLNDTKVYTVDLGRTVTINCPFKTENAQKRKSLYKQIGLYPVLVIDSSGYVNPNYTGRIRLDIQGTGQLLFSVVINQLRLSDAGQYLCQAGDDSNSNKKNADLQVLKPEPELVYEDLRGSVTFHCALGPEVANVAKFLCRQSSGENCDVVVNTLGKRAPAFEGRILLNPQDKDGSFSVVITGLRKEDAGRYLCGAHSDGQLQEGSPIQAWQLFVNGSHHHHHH

B1: VHH11-linker-mono-Fc protein (Fc fusion)
chain: EVQVVESGGGLVQAGGSLRLSCAASGRTFTTYRMGWFRQAPGKEREFVAAIRWSGGRTLYADSVKGRFTISRDNAKNTAYLQMNNLRPEDTAVYYCAADLAEYSGTYSSPADSPAGYDYWGQGTQVTVSSEPKTPKPQPQPQLQPQPNPTTESKSPKSPAPELLGGPSVFLFPPKPKDTLMISRTPEVTCVVVDVSHEDPEVKFNWYVDGVEVHNAKTKPREEQYNSTYRVVSVLTVLHQDWLNGKEYKCKVSNKALPAPIEKTISKAKGQPREPQVYTKPPSREEMTKNQVSLSCLVKGFYPSDIAVEWESNGQPENNYKTTVPVLDSDGSFRLASYLTVDKSRWQQGNVFSCSVMHEALHNHYTQKSLSLSPGK
notes: made in CHO cells; also called VHH11-mono-Fc; hpIgR_250
B2: VHH10-linker-mono-Fc protein (Fc fusion)
chain: EVQVVESGGGLVQAGGSLRLSCAASGFTFTRYAMGWFRQAPGKERSFVAAISWSGSSAGYGDSVKGRFTISRDNAKNTLYLQMNSLKPEDTAVYYCAADPFNQGYWGQGTQVTVSSEPKTPKPQPQPQLQPQPNPTTESKSPKSPAPELLGGPSVFLFPPKPKDTLMISRTPEVTCVVVDVSHEDPEVKFNWYVDGVEVHNAKTKPREEQYNSTYRVVSVLTVLHQDWLNGKEYKCKVSNKALPAPIEKTISKAKGQPREPQVYTKPPSREEMTKNQVSLSCLVKGFYPSDIAVEWESNGQPENNYKTTVPVLDSDGSFRLASYLTVDKSRWQQGNVFSCSVMHEALHNHYTQKSLSLSPGK
notes: made in CHO cells; also called VHH10-mono-Fc; hpIgR_225

Tests used:
[1] = target: T4, human pIgR extracellular domain (ECD) (human, UniProt P01833 19-638); assay: ECL (MSD), hpIgR-ECD coated, anti-VHH detection
T4 construct: also called hpIgR ECD
T4 sequence (P01833 other isoform, or with tags, fused parts or gaps): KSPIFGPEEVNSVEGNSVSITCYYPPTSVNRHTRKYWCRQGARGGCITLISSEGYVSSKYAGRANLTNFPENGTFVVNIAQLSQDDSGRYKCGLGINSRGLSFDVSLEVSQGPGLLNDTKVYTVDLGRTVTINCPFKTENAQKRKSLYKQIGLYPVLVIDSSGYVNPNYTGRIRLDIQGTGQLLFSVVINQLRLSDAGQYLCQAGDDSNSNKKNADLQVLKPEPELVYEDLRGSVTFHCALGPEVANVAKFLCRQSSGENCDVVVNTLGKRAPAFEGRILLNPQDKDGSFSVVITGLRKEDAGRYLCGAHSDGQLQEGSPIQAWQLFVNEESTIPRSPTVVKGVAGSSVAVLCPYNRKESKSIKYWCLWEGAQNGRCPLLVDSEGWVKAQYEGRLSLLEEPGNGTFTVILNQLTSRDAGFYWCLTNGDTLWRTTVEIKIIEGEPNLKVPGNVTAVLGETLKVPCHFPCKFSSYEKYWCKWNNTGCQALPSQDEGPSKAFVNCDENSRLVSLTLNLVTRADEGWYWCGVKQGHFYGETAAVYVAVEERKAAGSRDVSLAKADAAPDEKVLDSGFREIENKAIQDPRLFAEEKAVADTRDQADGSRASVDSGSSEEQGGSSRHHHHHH
Protocol: (§1) To check whether VHH recognizes a buried epitope on pIgR, EC₅₀ values were measured for VHH-mono-Fc molecules binding to hpIgR-ECD protein by electrochemiluminescence using two different detection antibodies, an anti-Fc antibody and an anti-VHH antibody. pIgR ECD (10 μg/ml in PBS) was coated on high-bind MSD plates for 2 hours at RT with 1000 rpm, incubated with blocking buffer for 1 hour at RT, incubated with VHH-mono-Fc molecules (increasing concentrations in PBS) for 2 hours at RT with 1000 rpm, washed 3× with PBT, incubated with ruthenylated secondary antibody (2 μg/ml in PBS) for 1 hour at RT with 1000 rpm, washed 3× with PBT and read plates in 40 ul reading buffer using the MSD imager. EC50 was calculated by fitting log VHH concentration versus log ECLU in Prism (Graphpad). The increase in EC₅₀ (>50-fold) due to anti-VHH detection was used as a measure to determine whether VHH recognized buried epitope on pIgR.

[2] = target: T5, human pIgR, full-length, on cells (human, UniProt P01833 19-764); assay: cell-based or functional assay
T5 sequence (P01833 19-764): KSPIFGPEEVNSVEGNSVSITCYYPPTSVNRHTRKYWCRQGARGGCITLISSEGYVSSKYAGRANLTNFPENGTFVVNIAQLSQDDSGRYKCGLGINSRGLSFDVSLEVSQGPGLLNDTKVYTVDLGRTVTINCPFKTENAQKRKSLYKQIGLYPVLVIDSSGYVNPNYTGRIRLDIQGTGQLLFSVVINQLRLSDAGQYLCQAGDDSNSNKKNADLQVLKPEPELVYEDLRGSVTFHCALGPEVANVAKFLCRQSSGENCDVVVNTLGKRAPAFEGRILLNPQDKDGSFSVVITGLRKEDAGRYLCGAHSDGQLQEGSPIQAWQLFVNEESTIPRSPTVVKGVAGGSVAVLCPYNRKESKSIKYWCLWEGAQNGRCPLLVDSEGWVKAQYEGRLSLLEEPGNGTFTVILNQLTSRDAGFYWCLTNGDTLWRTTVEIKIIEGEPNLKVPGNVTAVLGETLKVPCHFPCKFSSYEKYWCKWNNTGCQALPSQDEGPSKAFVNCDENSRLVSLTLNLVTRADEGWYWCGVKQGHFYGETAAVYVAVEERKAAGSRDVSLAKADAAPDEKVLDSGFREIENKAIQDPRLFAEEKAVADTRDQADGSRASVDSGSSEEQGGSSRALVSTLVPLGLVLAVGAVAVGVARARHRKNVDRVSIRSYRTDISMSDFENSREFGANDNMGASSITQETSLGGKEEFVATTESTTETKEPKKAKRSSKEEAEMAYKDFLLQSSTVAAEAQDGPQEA

[3] = target: T5, human pIgR, full-length, on cells; assay: flow cytometry on MDCK-hpIgR cells
[4] = target: T6, human pIgR extracellular domain 1 (D1) (human, UniProt P01833 19-127); assay: ECL (MSD) heat map, HIS-tagged construct captured via anti-HIS, anti-human-Fc detection;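 further: VHH-mono-Fc molecules tested at 100 µg/ml for 2 h on captured His-tagged pIgR constructs (10 µg/ml), read-out as electrochemiluminescence units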
T6 construct: HIS-tagged construct made in HEK293 cells; also called hpIgR domain-1
T6 sequence (P01833 other isoform, or with tags, fused parts or gaps limits assumed): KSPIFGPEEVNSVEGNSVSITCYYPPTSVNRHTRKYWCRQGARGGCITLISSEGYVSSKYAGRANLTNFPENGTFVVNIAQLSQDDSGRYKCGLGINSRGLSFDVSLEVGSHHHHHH

[5] = target: T1, hpIgR_D3; assay: as above
[6] = target: T7, human pIgR extracellular domain 2 (D2) (human, UniProt P01833 128-242); assay: as above
T7 construct: HIS-tagged construct made in HEK293 cells; also called hpIgR domain 2

[7] = target: T5, human pIgR, full-length, on cells; assay: flow cytometry on MDCK-hpIgR cells; summary table, repeats Table 1
Protocol: (§2) Flow Cytometry was performed as follows. To test whether VHH-mono-Fc molecules recognize cell-surface hpIgR, Madin-Darby canine kidney (MDCK) cells engineered to express full-length hpIgR were used. Cells were cultured in Dulbecco's modified Eagle's medium containing 10% fetal calf serum at 37° C. with 5% CO₂. Cells were split into equal fractions (≈70,000 cells) and incubated with increasing concentrations of VHH-mono-Fc molecules for 30 min at 4 C. […] Cells were washed twice with cold staining buffer, resuspended in running buffer and analyzed with an iQue Screener (IntelliCyt Corporation). Binding was assessed by RL1 (A647) Geomeans from the live cell population and EC50 was calculated by fitting log VHH concentration versus MFI in Prism (Graphpad).

[8] = target: T4, human pIgR extracellular domain (ECD); assay: BLI (Octet), VHH-mono-Fc and hpIgR ectodomain
[9] = target: T4, human pIgR extracellular domain (ECD); assay: BLI; summary table, repeats Table 1
[10] = target: T2, human pIgR extracellular domain …; assay: BLI (Octet RED384), 1:1 fit, 25 C, PBS; column kdis
[11] = target: T4, human pIgR extracellular domain (ECD); assay: as above
[12] = target: T5, human pIgR, full-length, on cells; assay: cell-based or functional assay; remark: listed apart in the source
[13] = target: T4, human pIgR extracellular domain (ECD); assay: BLI; summary table, repeats Table 1; remark: listed apart in the source
[14] = target: T5, human pIgR, full-length, on cells; assay: flow cytometry on MDCK-hpIgR cells; summary table, repeats Table 1; remark: listed apart in the source
Protocol: as §2

[15] = target: T2, human pIgR extracellular domain …; assay: BLI (Octet RED384), 1:1 fit, 25 C, PBS
[16] = target: T4, human pIgR extracellular domain (ECD); assay: BLI (Octet RED384), 1:1 fit, 25 C, PBS
[17] = target: T8, human pIgR extracellular domain 5 (D5) (human, UniProt P01833 460-565); assay: ECL (MSD) heat map, HIS-tagged construct captured via anti-HIS, anti-human-Fc detection
T8 construct: HIS-tagged construct made in HEK293 cells; also called hpIgR domain 5

[18] = target: T3, hpIgR_D2-D3; assay: as above
[19] = target: T9, human pIgR extracellular domain 1-domain 2 (D1-D2) (human, UniProt P01833 19-240); assay: as above
T9 construct: HIS-tagged construct made in HEK293 cells
T9 sequence (P01833 other isoform, or with tags, fused parts or gaps limits assumed): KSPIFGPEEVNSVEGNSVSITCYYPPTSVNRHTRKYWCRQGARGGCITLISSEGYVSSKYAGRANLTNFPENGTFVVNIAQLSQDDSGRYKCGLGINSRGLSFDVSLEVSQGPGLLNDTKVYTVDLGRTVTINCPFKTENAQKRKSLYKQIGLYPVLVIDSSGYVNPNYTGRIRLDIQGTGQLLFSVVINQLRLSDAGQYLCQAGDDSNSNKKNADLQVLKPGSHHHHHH

[20] = target: T4, human pIgR extracellular domain (ECD); assay: ECL (MSD), hpIgR-ECD coated, anti-Fc detection
Protocol: as §1

[21] = target: T4, human pIgR extracellular domain (ECD); assay: ECL (MSD), anti-VHH detection against anti-Fc detection
[22] = target: T5, human pIgR, full-length, on cells; assay: cell-based or functional assay; remark: listed apart in the source

Binder | EC50 [1] [nM] | Transcytosis (Fold Incr.) [2] [fold] | EC50 [3] [nM] | binding result [5] | binding result [6] | EC50 [7] [nM] | Kd [8] [nM] | Kd [9] [nM] | koff [10] [s⁻¹] | koff [11] [s⁻¹] | Kd [13] [nM] | EC50 [14] [nM] | Kd [15] [nM] | kon [15] [M⁻¹ s⁻¹] | Kd [16] [nM] | kon [16] [M⁻¹ s⁻¹] | binding result [17] | binding result [18] | EC50 [20] [nM] | Fold change in EC50 [21] [fold] | also measured
B1 | 0.8 | 32 | 1.5 | no binding (tested: 100 ug/ml (single concentration)) | no binding (tested: 100 ug/ml (single concentration)) | 1.5 | 19 | 19 | 0.00281 | 0.00314 | 19 | 1.5 | 15.2 | 184000 | 27.9 | 113000 | no binding (tested: 100 ug/ml (single concentration)) | no binding (tested: 100 ug/ml (single concentration)) | 0.3 | 3.2 | binding result [4]: no binding (tested: 100 ug/ml (single concentration)); increase in their apical concentration relative to control VHH (MDCK-hpIgR monolayers) [12]: > 10 fold; binding result [19]: no binding (tested: 100 ug/ml (single concentration)); For. Trans. (Fold Incr.) [22]: 24.2 fold; Rev. Trans (Fold Incr.) [22]: 10.3 fold
B2 | 43.9 | 5 | 20.4 | no binding (tested: 100 ug/ml (single concentration)) | no binding (tested: 100 ug/ml (single concentration)) | 20.4 | 256 | 256 | 0.00188 | 0.00513 | 256 | 20.4 | 115 | 16300 | 256 | 20000 | no binding (tested: 100 ug/ml (single concentration)) | no binding (tested: 100 ug/ml (single concentration)) | 17.6 | 2.5 | For. Trans. (Fold Incr.) [22]: 1.3 fold; Rev. Trans (Fold Incr.) [22]: 3.4 fold
